Earlier results in US20240156960A1 (priority 2020, published 2024).

B1: C118 (antibody, listed as Homo sapiens, V domains shown)
VH: QVQLVESGGGVVQPGRSLRLSCAASGFTFSNYAMHWVRQAPGKGLEWVAVISYDGSNKYYADSVKGRFTISRDNSKNTLYLQMNSLRAEDTAIYYCASGYTGYDYFVRGDYYGLDVWGQGTTVTVSS
VL: QPVLTQSPSASASLGASVKLTCTLSSGHSSYAIAWHQQQPEKGPRYLMKLNTDGSHSKGDGIPDRFSGSSSGAERYLTISSLQSEDEADYYCQTWGTGILVFGGGTKLTVL
B2: 9A1 (antibody, listed as Homo sapiens, V domains shown)
VH: EVQLLESGGGVVQPGRSLRLSCVVSGFTFNNYGMHWVRQAPGKGLEWVAVISYEGSVKYYGDHVDGRFTISRDPFKNTLYLHMNNLRPDDTAVYYCAKVSAIFWLGQGLSPIDVWGQGTTVTVSS
VL: DIVMTQSPATLSASPGERVTLSCRASQNIRNNLAWYQQKPGQAPRLLIHGASTRAAGAPARFSGSGSDTQFTLTVSSLQSEDFAVYYCHQYSKWPVTFGGGTKVDIK
B3: C128 (antibody, listed as Homo sapiens, V domains shown)
VH: EVQLLESGGGLVQPGGSLRLSCAASGFTFSTYAMSWVRQAPGKGLEWVSTITGSGRDTYYADSVKGRFTISRDNSKNTLFLQLNSLRAEDAAVYSCANHPLASGDDYYHYYMDVWGKGTTVTVSS
VL: EIVLTQSPGTLSLSPGERATLSCRASQSVNSRQLAWYQQKPGQAPRLLIYGASSRATGIPERFSGSGSGTDFTLTISRLESEDFAVYHCQQYGSSRALTFGGGTKVEIK
B4: C130 (antibody, listed as Homo sapiens, V domains shown)
VH: QVQLVQSGAEVKKPGASVKVSCKASGYTFTNYYMHWVRQAPGQGLEWMGIINPSGGSTGYAQKFQGRVTMTRDTSTSTVYMELSSLRSEDTAVYYCARSRPTPDWYFDLWGRGTLVTVSS
VL: SYELTQPPSVSVAPGKTARITCGGNNIGSKSVHWYQQKPGQAPVLVIYYDSDRPSGIPERFSGSNSGNTATLTISRVEAGDEADYYCQVWDSSSDHPGVVFGGGTKLTVL

Tests used:
[1] = test system: SARS-CoV1
[2] = target: SARS-CoV2 S; RBD (Severe acute respiratory syndrome coronavirus 2, UniProt P0DTC2); settings: epitope S
[3] = test system: coronavirus named in the cell (SARS-CoV2, SARS-CoV1), S protein
[4] = test system: coronavirus named in the cell (SARS-CoV2, SARS-CoV1)
[5] = test system: SARS-CoV2; settings: source Davide Robbiani et al., 2020
[6] = test system: SARS-CoV1; remark: listed apart in the source

Molecule	Binds to [5]	Not Neutralising Vs [6]	other results
B1	–	–	Binds to [1]: SARS-CoV1,; Binds to [2]: SARS-CoV2
B2	–	–	Binds to [3]: SARS-CoV2; Not Neutralising Vs [4]: SARS-CoV2
B3	SARS-CoV2	SARS-CoV1	–
B4	SARS-CoV2	SARS-CoV1,	–
